The results in this text go back to US20260131011A1.

No end group written: not given here. Some results are limits rather than exact numbers.

In assay [1] the target is RSVB18537.
Assay [2] addresses RSVA2.
In assay [3] the target is hPIVC243.

B1: HPIV3_3004 (native) HR2 ligand conjugated to cholesterol (Peptide Conjugate 12) (peptide)
peptide: VALDPIDISIELNKAKSDLEESKEWIRRSNQKLDSI
modifications: also: conjugated to cholesterol
One may read the EC50 as the concentration at which the effect is half-maximal. Higher therefore signals lower potency in that assay. In the case of B1, the EC50 in assay [1] was less than 40 nM; in assay [2], 50 nM; in assay [3] it was more than 5.29 µM.
